In paper PMC10558455, “Rab41-mediated ESCRT machinery repairs membrane rupture by a bacterial toxin in xenophagy” (Nature Communications, 2023):

Target: T1, streptolysin O (SLO) secreted by Group A Streptococcus strain JRS4 (Streptococcus pyogenes JRS4 (serotype …, UniProt Q5XE40))
T1 construct: also called GAS pore-forming toxin; bacterial cytolysin
Test: co-IP
Conditions: partners not purified

B1: STAND-HS1 (anti-SLO intrabody) (scFv, V domains shown)
VH: EVQLQESGPSLVKPSQTLSLTCSVTGDSITSGYWNWIRKFPGNKFEYMGYISYGDSTYYNPSLKSRISITRDTSKNQYYLQLNSVTTEDTATYYCARLGNDYNWYFDVWGAGTTVTVSS
VL: DIQMNQSPSSLSASLGDTITITCHASQNINVWLSWYQQKPGNIPKLLIFKASNLYTGVPSRFSGSGSGTGFTLTISSLQPEDIATYYCQQGQTYPLTFGGGTKL
notes: also called anti-SLO scFv; anti-SLO intracellular antibody; not shown: 3xFLAG, N-terminal, kept
- binding result: binds
